The source of these data is patent EP2814500B1 (Ecole Polytechnique Fédérale de Lausanne (EPFL), dated 2020).

The target of test [1] is T1, mouse glycophorin-A (GYPA) on the mouse erythrocyte surface (mouse, UniProt P14220 1-168). Briefly: photo-crosslinking of biotinylated peptide on whole mouse erythrocytes, streptavidin Western blot. In general terms: In western blotting, separated proteins are transferred to a membrane and probed.
The target of test [2] is T1, mouse glycophorin-A (GYPA) on the mouse …. In words: photo-crosslinking of biotinylated peptide on whole mouse erythrocytes, streptavidin bead purification, streptavidin and anti-GYPA Western blots.

B1: mismatch peptide (H2N-PLLTVGMDLWPWGGSGCRG-CONH2) conjugated to Mts-Atf-biotin (peptide)
peptide: H-PLLTVGMDLWPWGGSGCRG-NH2
modifications: not fully specified; also: conjugated to Mts-Atf-biotin, site not given here
notes: Control peptide with the same residues as ERY1 in scrambled order
On to B1, for which the binding result in test [1] is “no binding”.

B2: ERY1 peptide (H2N-WMVLPWLPGTLDGGSGCRG-CONH2) functionalized with biotin and a photoactivatable crosslinker (peptide)
peptide: H-WMVLPWLPGTLDGGSGCRG-NH2
modifications: also: conjugated to Mts-Atf-biotin, site not given here
notes: Synthetic peptide: the ERY1 12-mer followed by a GGSG linker, Cys and Arg-Gly; also called biotinylated soluble peptide; peptide-biotin complex
For the molecule B2, the binding result in test [2] was “binds”.
